Positions count from the first letter of the chain named. Numbers in names are those of the source. Blank lines part the entries; values can stand above or below the molecule they belong to.
Columns and labels:
[1] = target: hSlo1EM-eGFP-twin-strep (human Slo1 channel, tags on) (human)
[2] = target: hSlo1EM (human Slo1 channel, tags released) (human); assay: SEC
[3] = target: hSlo1EM-eGFP-twin-strep (human Slo1 channel, tags on) (human); remark: listed apart in the source
[4] = target: hSlo1EM-eGFP-twin-strep (human Slo1 channel, tags on) (human); remark: listed apart in the source
[5] = target: hSlo1EM-eGFP-twin-strep (human Slo1 channel, tags on) (human); remark: listed apart in the source
SEC = target: the molecule itself; assay: SEC
[6] = target: hSlo1EM (human Slo1 channel, tags released) (human); assay: cryo-EM structure
cryo-EM structure = target: the molecule itself; assay: cryo-EM structure

Sequence of hSlo1EM-eGFP-twin-strep (human Slo1 channel, tags on) (human) (Q12791 whole entry): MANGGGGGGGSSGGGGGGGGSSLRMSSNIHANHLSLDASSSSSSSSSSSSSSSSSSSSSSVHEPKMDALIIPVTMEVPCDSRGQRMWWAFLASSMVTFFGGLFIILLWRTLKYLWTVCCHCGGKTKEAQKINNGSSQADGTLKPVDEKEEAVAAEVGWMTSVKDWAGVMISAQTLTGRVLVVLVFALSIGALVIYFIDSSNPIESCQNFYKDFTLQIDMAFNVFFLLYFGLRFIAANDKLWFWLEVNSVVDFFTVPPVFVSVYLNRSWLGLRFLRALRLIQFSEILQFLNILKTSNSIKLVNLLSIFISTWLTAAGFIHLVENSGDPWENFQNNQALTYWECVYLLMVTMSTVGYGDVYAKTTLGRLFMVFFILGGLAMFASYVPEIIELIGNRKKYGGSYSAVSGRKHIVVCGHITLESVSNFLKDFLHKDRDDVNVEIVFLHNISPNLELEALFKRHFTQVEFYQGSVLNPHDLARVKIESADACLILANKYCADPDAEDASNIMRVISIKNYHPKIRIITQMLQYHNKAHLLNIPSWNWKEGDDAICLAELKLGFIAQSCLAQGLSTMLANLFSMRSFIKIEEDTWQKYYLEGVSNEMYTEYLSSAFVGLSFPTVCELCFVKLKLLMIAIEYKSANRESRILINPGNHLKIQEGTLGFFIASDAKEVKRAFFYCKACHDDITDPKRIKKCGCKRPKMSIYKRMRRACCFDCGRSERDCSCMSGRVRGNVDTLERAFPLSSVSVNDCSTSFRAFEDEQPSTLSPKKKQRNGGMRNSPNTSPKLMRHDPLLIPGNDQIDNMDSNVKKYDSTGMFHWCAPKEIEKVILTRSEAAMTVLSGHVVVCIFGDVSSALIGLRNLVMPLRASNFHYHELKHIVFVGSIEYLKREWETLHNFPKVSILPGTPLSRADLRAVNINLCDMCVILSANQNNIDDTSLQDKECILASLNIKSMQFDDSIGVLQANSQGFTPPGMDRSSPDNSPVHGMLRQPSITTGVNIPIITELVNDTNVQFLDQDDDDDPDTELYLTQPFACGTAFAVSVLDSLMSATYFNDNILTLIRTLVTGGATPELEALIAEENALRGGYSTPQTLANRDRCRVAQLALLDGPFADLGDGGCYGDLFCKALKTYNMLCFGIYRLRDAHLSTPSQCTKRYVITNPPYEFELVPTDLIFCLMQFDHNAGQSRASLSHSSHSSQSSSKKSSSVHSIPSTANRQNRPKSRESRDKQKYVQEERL

stoichiometry N [1]: 4 subunits
Molecule: hSlo1EM-eGFP-twin-strep (human Slo1 channel, tags on) (natural protein)

stoichiometry N [2]: 4 subunits
Molecule: hSlo1EM (human Slo1 channel, tags released) (natural protein)

percent of total Slo1 in complex [3]: < 10%
B1: LRRC55 (γ3)-mCherry-FLAG (natural protein)
chain: GTSCPVLCTCRNQVVDCSSQRLFSVPPDLPMDTRNLSLAHNRITAVPPGYLTCYMELQVLDLHNNSLMELPRGLFLHAKRLAHLDLSYNNFSHVPADMFQEAHGLVHIDLSHNPWLRRVHPQAFQGLMQLRDLDLSYGGLAFLSLEALEGLPGLVTLQIGGNPWVCGCTMEPLLKWLRNRIQRCTADSQLAECRGPPEVEGAPLFSLTEESFKACHLTLTLDDYLFIAFVGFVVSIASVATNFLLGITANCCHRWSKASEEEEI

percent of total Slo1 in complex [3]: > 90% | stoichiometry N (auxiliary subunits per Slo1 tetramer) [4]: 4
B2: β2 subunit-mCherry-FLAG (natural protein)
chain: MFIWTSGRTSSSYRHDEKRNIYQKIRDHDLLDKRKTVTALKAGEDRAILLGLAMMVCSIMMYFLLGITLLRSYMQSVWTEESQCTLLNASITETFNCSFSCGPDCWKLSQYPCLQVYVNLTSSGEKLLLYHTEETIKINQKCSYIPKCGKNFEESMSLVNVVMENFRKYQHFSCYSDPEGNQKSVILTKLYSSNVLFHSLFWPTCMMAGGVAIVAMVKLTQYLSLLCERIQRINR

stoichiometry N (γ1 subunits per Slo1 tetramer) [5]: 3.5 | percent of total Slo1 in complex [3]: 50% | stoichiometry N (auxiliary subunits per Slo1 tetramer) [4]: 4
B3: human LRRC26 (γ1)-mCherry-FLAG (natural protein, UniProt Q2I0M4 27-334, looked up)
chain: QVSATASPSGSLGAPDCPEVCTCVPGGLASCSALSLPAVPPGLSLRLRALLLDHNRVRALPPGAFAGAGALQRLDLRENGLHSVHVRAFWGLGALQLLDLSANQLEALAPGTFAPLRALRNLSLAGNRLARLEPAALGALPLLRSLSLQDNELAALAPGLLGRLPALDALHLRGNPWGCGCALRPLCAWLRRHPLPASEAETVLCVWPGRLTLSPLTAFSDAAFSHCAQPLALRDLAVVYTLGPASFLVSLASCLALGSGLTACRARRRRLRTAALRPPRPPDPNPDPDPHGCASPADPGSPAAAAQA
binding result (SEC): binds

stoichiometry N (γ1 subunits per Slo1 tetramer) [6]: 4
B4: human LRRC26 (γ1) subunit, tags released (natural protein, UniProt Q2I0M4 27-334, looked up)
chain: B3 chain
modifications: density at N147 likely corresponding to glycosylation
binding result (cryo-EM structure): binds

stoichiometry N (γ subunits per Slo1 tetramer) [4]: 2.4
B5: γ1 P270F-mCherry-FLAG (natural protein)
chain: B3 chain with P244F

B6: LRRD of γ1 (residues 1-261)-mCherry-FLAG (domain or fragment, human, UniProt Q2I0M4 27-261, looked up)
chain: QVSATASPSGSLGAPDCPEVCTCVPGGLASCSALSLPAVPPGLSLRLRALLLDHNRVRALPPGAFAGAGALQRLDLRENGLHSVHVRAFWGLGALQLLDLSANQLEALAPGTFAPLRALRNLSLAGNRLARLEPAALGALPLLRSLSLQDNELAALAPGLLGRLPALDALHLRGNPWGCGCALRPLCAWLRRHPLPASEAETVLCVWPGRLTLSPLTAFSDAAFSHCAQPLALRD
binding result (SEC): binds

percent of total Slo1 in complex [3]: > 90% | stoichiometry N (auxiliary subunits per Slo1 tetramer) [4]: 4
B7: β4 subunit-mCherry-FLAG (natural protein)
chain: MAKLRVAYEYTEAEDKSIRLGLFLIISGVVSLFIFGFCWLSPALQDLQATEANCTVLSVQQIGEVFECTFTCGADCRGTSQYPCVQVYVNNSESNSRALLHSDEHQLLTNPKCSYIPPCKRENQKNLESVMNWQQYWKDEIGSQPFTCYFNQHQRPDDVLLHRTHDEIVLLHCFLWPLVTFVVGVLIVVLTICAKSLAVKAEAMKKRKFS

percent of total Slo1 in complex [3]: < 10%
B8: LRRC38 (γ4)-mCherry-FLAG (natural protein)
chain: CPAGCACTDPHTVDCRDRGLPSVPDPFPLDVRKLLVAGNRIQRIPEDFFIFYGDLVYLDFRNNSLRSLEEGTFSGSAKLVFLDLSYNNLTQLGAGAFRSAGRLVKLSLANNNLVGVHEDAFETLESLQVLELNDNNLRSLSVAALAALPALRSLRLDGNPWLCDCDFAHLFSWIQENASKLPKGLDEIQCSLPMESRRISLRELSEASFSECRFSLSLTDLCIIIFSGVAVSIAAIISSFFLATVVQCLQRCAPNKDAEDEDEDKDD

— paper doi:10.1101/2023.12.20.572542 (bioRxiv, 2023)
